Measurements published in article PMC10215423, “The Diagnostic Potential of RNA Aptamers against the NS1 Protein of Dengue Virus Serotype 2”.

Target: NS1 (dengue virus serotype 2) (Dengue virus serotype 2, UniProt P29990 776-1127)
Experiment: filter binding
Conditions: protein: commercial; chain copies: 2

Sequence of NS1 (dengue virus serotype 2) (P29990 776-1127): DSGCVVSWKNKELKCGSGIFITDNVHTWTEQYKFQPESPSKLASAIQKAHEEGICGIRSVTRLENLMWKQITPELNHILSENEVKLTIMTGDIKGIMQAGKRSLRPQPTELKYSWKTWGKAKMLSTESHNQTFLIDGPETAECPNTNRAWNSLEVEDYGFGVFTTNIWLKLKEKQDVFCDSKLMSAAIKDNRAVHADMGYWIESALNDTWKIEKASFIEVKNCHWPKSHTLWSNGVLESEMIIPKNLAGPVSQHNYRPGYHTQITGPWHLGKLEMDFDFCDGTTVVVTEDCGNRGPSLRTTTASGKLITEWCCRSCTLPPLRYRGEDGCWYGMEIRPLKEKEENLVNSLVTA

B1: DENV-3 (structured_RNA)
RNA: GGAGCUCAGCCUUCACUGCUUUGAUCUCGUGGGGGUGUGUCGCGGGAGACACCAUGGAAUAUAUGGCUGAUUUCAUGUGGGCACCACGGUCGGAUCCAC
Kd: 0.0376 ± 0.0103 µM

B2: DENV-6 (structured_RNA)
RNA: GGAGCUCAGCCUUCACUGCCGUAGUCGUAUCUCCAUUACCCAGAAUGGUGAUGCGCCGUGAAGAGCGGUUUAGGGAAUUGGCACCACGGUCGGAUCCAC
Kd: 0.0414 ± 0.00929 µM
